Measurements reported in patent publication US20260374889 (published 2026).
Where a chain is given by its changes, count along the chain named.

T1: human BCMA on CHO cells (human)
T1 chain: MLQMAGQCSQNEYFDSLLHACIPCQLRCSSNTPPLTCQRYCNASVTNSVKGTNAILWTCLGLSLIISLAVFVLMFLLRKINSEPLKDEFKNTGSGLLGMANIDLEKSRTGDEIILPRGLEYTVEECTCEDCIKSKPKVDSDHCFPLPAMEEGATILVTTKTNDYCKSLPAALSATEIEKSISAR

B1: BCMA (PR)-CD28v8 P1AF7062, BCMA arm (antibody, V domains shown)
VH: EVQLLESGGGLVQPGGSLRLSCAASGFTFSSYAMNWVRQAPGKGLEWVSAITASGGSTYYADSVKGRFTISRDNSKNTLYLQMNSLRAEDTAVYYCARYWPMSLWGQGTLVTVSS
VL: EIVLTQSPGTLSLSPGERATLSCRASQSVSAYYLAWYQQKPGQAPRLLMYDASIRATGIPDRFSGSGSGTDFTLTISRLEPEDFAVYYCQQYERWPLTFGQGTKVEIKR
B2: BCMA (PR)-CD28v15 P1AE9053, BCMA arm (antibody, V domains shown)
VH: B1 VH
VL: B1 VL
B3: P1AG7285 BCMA arm (antibody, V domains shown)
VH: QVQLVQSGAEVKKPGASVKVSCKASGYTFTNYWMHWVRQAPGQGLEWMGIIHPNSGSTNYNEKFQGRVTMTRDTSTSTVYMELSSLRSEDTAVYYCARGIYDYPFAYWGQGTLVTVSS
VL: DIQMTQSPSSLSASVGDRVTITCRASESVSIHGTHLMHWYQQKPGKAPKLLIYAASSLQSGVPSRFSGSGSETDFTLTISSLQPEDFATYYCQQSIEDPYTFGGGTKVEIK
B4: P1AG7215 BCMA arm (antibody, V domains shown)
VH: B3 VH
VL: B3 VL with S57N, Q59E, E72G
B5: P1AG7191 BCMA arm (antibody, V domains shown)
VH: B3 VH
VL: B3 VL
B6: P1AG7200 BCMA arm (antibody, V domains shown)
VH: B3 VH
VL: B3 VL with S57N, Q59E, E72G
B7: P1AG7207 BCMA arm (antibody, V domains shown)
VH: EVQLLESGGGLVQPGGSLRLSCAASGFTFSNAWMDWVRQAPGKGLEWVSQITAKSNNYATYYADSVKGRFTISRDNSKNTLYLQMNSLRAEDTAVYYCTDDGYHWGQGTLVTVSS
VL: DIQMTQSPSSLSASVGDRVTITCRASEDIRNGLAWYQQKPGKAPKLLIYNANSLHTGVPSRFSGSGSGTDFTLTISSLQPEDFATYYCEDTSKYPYTFGQGTKLEIK
B8: P1AG7196 BCMA arm (antibody, V domains shown)
VH: B7 VH
VL: B7 VL

Target: T1, human BCMA on CHO cells
Assay: FACS

| Binder | EC50 |
| --- | --- |
| B1 | 5.55 nM |
| B2 | 7.63 nM |
| B3 | 25.6 nM |
| B4 | 16.5 nM |
| B5 | 19.8 nM |
| B6 | 13.8 nM |
| B7 | 16.3 nM |
| B8 | 18.1 nM |
